US9827336B2, “Radio-pharmaceutical complexes” (Bayer AS, priority 2012, dated 2017)

How the values were obtained:
[1] = target: T1, CD33 (Homo sapiens, UniProt P20138); experiment: Binding to CD33-positive HL-60 cells by flow cytometry; conditions: FIG. 2
T1 construct: endogenous in cells; host or cells: HL-60 cells
Procedure: Binding to CD33-positive HL-60 cells were studied by flow cytometry. The determination of EC50 based on the plotted curve gives an approximate value for the affinity. The commercially available mouse anti human CD33 (BD Pharmingen; #555450, 1 mg/mL) was used as a reference antibody for assessment of the affinity, including a setup with a 50:50 mixture with the mAb to be analyzed. This assay was also used to confirm that target binding affinity was not negatively affected by conjugation with the chelator.
HL-60 cells were grown in Iscove's Modified Dulbecco's Medium (IMDM; Invitrogen; #12440-046) in the presence of 20% of fetal bovine serum and penicillin/streptomycin. […] Subsequently, 20 μL of the preparation of resuspended cells was diluted 1:500 in Coulter Isoton II Diluent, and counted using a Beckman Coulter Z2 instrument (Beckman Coulter; CA, USA). […]
The mAb or conjugate to be analyzed was prepared fresh form frozen stock by shifting the storage buffer to PBS, kept at 4° C., and used within a few days after preparation. […]
The cells were washed twice, as described above, and re-suspended in 200 μL PBS, supplemented with 0.1% BSA. All samples were analysed in 96-well round or conical bottom plates. Fluorescent signals were recorded on a Beckham Coulter Cell lab Quant SC flow cytometer (Beckman Coulter; CA, USA). […]

[2] = tested on: HL-60 tumour; experiment: Biodistribution in HL-60 tumour bearing nude mice; conditions: 15 kBq/animal intravenous, HL-60 xenograft
Source text: Female NMRI nude mice were xenografted with cells from the human HL-60 tumour cell line. […] 54 female NMRI nude mice (Taconic, Europe) were used in the study.
The animals were allowed an acclimation period of at least 5 days before entering the study and were at an age of 4 weeks before tumour inoculation. […] Animals were kept in individually ventilated cages (IVC, Scanbur) with HEPA filtered air and had ad libitum access to “Rat and mouse nr.3 Breeding” diet (Scanbur BK) and water acidified by addition of HCl to a molar concentration of 1 mM (pH 3.0). HL-60 cells (ATCC/United Kingdom; Catalog Number CCL-240) were grown and prepared for subcutaneous inoculation in IMDM (Invitrogen; #12440-046) in presence of 20% FCS and penicillin/streptomycin. […]
Animals were euthanized at predetermined time points post injection, and blood, muscle, femur, kidneys, lung, liver, stomach, small intestine, large intestine and tumour were collected. Tissues and blood samples were weighed, and the radioactivity in each sample was measured using gamma spectroscopy (HPGe15p or HPGe50p germanium detectors).
The measured radioactivity (Bq) was related to the radioactivity measured in 10% injection standard samples, and the percentage of Th-227 and Ra-223 were calculated and presented as % ID or % ID per gram of tissue.

[3] = tested on: CD33 positive HL-60 cells; experiment: Th-227-induced cell cytotoxicity (ATP, CellTiter-Glo) in HL-60 cells; type: cell-based, human; conditions: 3 nM or 0.3 nM, 44 kBq/μg, up to day 7
Procedure: In vitro cell cytotoxicity was investigated in CD33 positive HL-60 cells. AGC0715 and the control trastuzumab conjugated AGC0015 were used to chelate Th-227 to a specific activity of 44 kBq/μg. HL-60 cells were grown at 37° C. with 5% CO2, and split 1:5 three times a week. The day before the assay the culture medium (Iscove's Modified Dulbecco's Medium (IMDM) with 20% FBS and 1% Penicillin/Streptomycin) was replaced by new medium and the volume adjusted to give 400 000 cells per mL.
About, 1 600 000 cell (4 mL) were added to each well in a 6 well plate. The plate was incubated until next day for addition of labelled mAb, or culture medium. After adding labelled mAb, or culture medium, the plate was incubated for 4 additional hours. In one experiment AGC0715 or trastuzumab-AGC0015 was added to each well to a final concentration of 3 nM. In another experiment the final concentration was 0.3 nM.
Following incubation, the cells were washed twice in culture medium, and the ATP in the supernatant and in the pellet was measured. The cells were then split 1:2 and incubated in culture medium at 37° C. with 5% CO2. The same procedure, but with only one wash, was repeated at days 2, 4, and 7.

[4] = tested on: HL-60 tumour; set-up: species or system mice; conditions: mouse, in vivo
Procedure: Cell preparation and xenografting of female NMRI nude mice are done as described in Example 9. […] The mice have an approximated body weight of approximately 20 grams at the start of the study. […] Mice will be inoculated with tumour cells about 10 days before dosing in order to have mice with average size of tumours in the range from 75-150 mm3. Animals are randomized into 4 treatment groups and 3 control groups (n=10/group).
Mice in the treatment groups are injected into the tail vein with 100 μL containing 75 kBq/mL, 150 kBq/mL, 225 kBq/mL or 300 kBq/mL AGC0715-Th-227, to achieve 250, 500, 750 or 1000 kBq/kg body weight (b.w.). The mice in the control groups are administered either with vehicle only (buffer), non-radioactive antibody (AGC0715) or trastuzumab-Th-227, labelled to a specific activity of 500 kBq/kg (isotype control).
Appearance of tumours will carefully be monitored, and the tumours will be scored (if not large enough to be measured) or measured thrice a week according to the following scheme:
Tumour diameters will be measured in two dimensions using a digital caliper and the volume will be estimated by the following formula: L×W×[…] (Length×Width×½ Width). […] Body weights will be recorded once a week. […]
The mice will be terminated following maximal tumour size of 15 mm diameter. […] In case of observations of adverse clinical signs, these will be recorded as note to files. […]

T1 sequence (P20138 18-364): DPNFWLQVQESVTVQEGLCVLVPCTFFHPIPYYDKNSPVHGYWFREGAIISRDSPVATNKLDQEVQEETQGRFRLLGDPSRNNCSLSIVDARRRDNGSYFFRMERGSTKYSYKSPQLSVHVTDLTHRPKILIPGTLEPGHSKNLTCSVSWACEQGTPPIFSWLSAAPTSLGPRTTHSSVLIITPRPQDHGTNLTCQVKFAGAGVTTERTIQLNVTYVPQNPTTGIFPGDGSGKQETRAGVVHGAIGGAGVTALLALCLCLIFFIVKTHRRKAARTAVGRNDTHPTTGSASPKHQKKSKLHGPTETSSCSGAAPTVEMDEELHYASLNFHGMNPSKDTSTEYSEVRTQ

| Molecule | binding affinity [1] | tumour targeting / build-up of radioactivity [2] | cellular toxicity (cell viability by ATP) [3] | adverse clinical signs [4] |
| --- | --- | --- | --- | --- |
| AGC0715: AGC0700 conjugated to high-solubility ligand (12) (conjugate, chelator AGC0015 (12) conjugated; site not stated; none, one or two chelators on a chain) heavy: QVQLVQSGAEVKKPGSSVKVSCKASGYTFTDYNMHWVRQAPGQGLEWIGYIYPYNGGTGYNQKFKSKATITADESTNTAYMELSSLRSEDTAVYYCARGRPAMDYWGQGTLVTVSSASTKGPSVFPLAPSSKSTSGGTAALGCLVKDYFPEPVTVSWNSGALTSGVHTFPAVLQSSGLYSLSSVVTVPSSSLGTQTYICNVNHKPSNTKVDKKVEPKSCDKTHTCPPCPAPELLGGPSVFLFPPKPKDTLMISRTPEVTCVVVDVSHEDPEVKFNWYVDGVEVHNAKTKPREEQYNSTYRVVSVLTVLHQDWLNGKEYKCKVSNKALPAPIEKTISKAKGQPREPQVYTLPPSRDELTKNQVSLTCLVKGFYPSDIAVEWESNGGQPENNYKTTPPVLDSDGSFFLYSKLTVDKSRWQQGNVFSCSVMHEALHNHYTQKSLSLSPG light: DIQMTQSPSSLSASVGDRVTITCRASESVDNYGISFMNWFQQKPGKAPKLLIYAASNQGSGVPSRFSGSGSGTDFTLTISSLQPDDFATYYCQQSKEVPWTFGQGTKVEIKRTVAAPSVFIFPPSDEQLKSGTASVVCLLNNFYPREAKVQWKVDNALQSGNSQESVTEQDSKDSTYSLSSTLTLSKADYEKHKVYACEVTHQGLSSPVTKSFNRGEC | comparable to the non-conjugated AGC0700 | Build-up of radioactivity was seen in the tumour, but in no normal tissue | – | – |
| AGC0715-Th-227: AGC0715 antibody-chelator conjugate chelated with Th-227 (conjugate, chelator AGC0015 (12) conjugated, chelating Th-227; site not stated) heavy: QVQLVQSGAEVKKPGSSVKVSCKASGYTFTDYNMHWVRQAPGQGLEWIGYIYPYNGGTGYNQKFKSKATITADESTNTAYMELSSLRSEDTAVYYCARGRPAMDYWGQGTLVTVSSASTKGPSVFPLAPSSKSTSGGTAALGCLVKDYFPEPVTVSWNSGALTSGVHTFPAVLQSSGLYSLSSVVTVPSSSLGTQTYICNVNHKPSNTKVDKKVEPKSCDKTHTCPPCPAPELLGGPSVFLFPPKPKDTLMISRTPEVTCVVVDVSHEDPEVKFNWYVDGVEVHNAKTKPREEQYNSTYRVVSVLTVLHQDWLNGKEYKCKVSNKALPAPIEKTISKAKGQPREPQVYTLPPSRDELTKNQVSLTCLVKGFYPSDIAVEWESNGGQPENNYKTTPPVLDSDGSFFLYSKLTVDKSRWQQGNVFSCSVMHEALHNHYTQKSLSLSPG light: DIQMTQSPSSLSASVGDRVTITCRASESVDNYGISFMNWFQQKPGKAPKLLIYAASNQGSGVPSRFSGSGSGTDFTLTISSLQPDDFATYYCQQSKEVPWTFGQGTKVEIKRTVAAPSVFIFPPSDEQLKSGTASVVCLLNNFYPREAKVQWKVDNALQSGNSQESVTEQDSKDSTYSLSSTLTLSKADYEKHKVYACEVTHQGLSSPVTKSFNRGEC | – | specific tumour uptake | resulted in cellular toxicity | No adverse clinical sigs |
